{"source": "patent US8992886B2", "about": "“Cyclic peptide analogues for non-invasive imaging of pancreatic beta-cells” (Board of Regents, the University of Texas System, priority 2009, dated 2015)", "key": {"in vivo": {"test": "in vivo", "parameters": "species or system Sprague-Dawley rats", "conditions": "Sprague-Dawley, rat, iv, total radioactivity", "procedure": "Given this encouraging in vitro result, the tissue distribution of both conjugates in normal Sprague-Dawley rats was examined. […] The radiolabeled compounds were diluted with saline and be injected into rats (n=4 at each time point) via the tail vein. The animal number at each time point was chosen for statistical analysis. […] At the selected post-injection time points, animals were sacrificed, and organs of interest removed, weighed, and counted. The percent injected dose per gram (% ID/g) and percent injected dose per organ (% ID/organ) was calculated by comparison to a weighed, counted standard. Pharmacokinetic parameters were estimated by using either one- or two-compartment model."}, "GLP-1R in pancreas": {"biological_target": "T1, GLP-1R in pancreas (Mus musculus, UniProt O35659)", "T1 sequence (O35659 22-463)": "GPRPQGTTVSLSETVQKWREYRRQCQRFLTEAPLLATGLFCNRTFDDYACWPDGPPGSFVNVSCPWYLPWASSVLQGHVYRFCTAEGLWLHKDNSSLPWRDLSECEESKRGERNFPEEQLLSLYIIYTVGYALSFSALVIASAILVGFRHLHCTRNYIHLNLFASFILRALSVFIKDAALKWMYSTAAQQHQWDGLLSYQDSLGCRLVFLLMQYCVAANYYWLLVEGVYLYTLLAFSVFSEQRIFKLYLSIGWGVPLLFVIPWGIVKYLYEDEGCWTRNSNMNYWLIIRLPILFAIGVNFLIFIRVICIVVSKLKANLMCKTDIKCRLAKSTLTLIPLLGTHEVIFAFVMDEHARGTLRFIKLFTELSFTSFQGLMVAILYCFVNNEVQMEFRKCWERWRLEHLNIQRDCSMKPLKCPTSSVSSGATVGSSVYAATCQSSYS", "test": "Dynamic PET/CT imaging of ^64Cu-labeled peptides in normal mice", "conditions": "^64Cu labeled, normal mice, dynamic PET-CT", "procedure": "Dynamic PET/CT scans were performed on a Siemens Inveon PET-CT multimodality system using normal male BABL/c mice (n=3 per peptide). Post-PET biodistribution was performed to verify the imaging findings.\nIn addition, D-Ala^8 was also introduced to prevent the degradation by DPP-IV.\nFIG. 9 are graphs that show a comparison of contrast in pancreatic, liver and kidney microPET scans. […] Quantitative analysis based on microPET/CT 0-60 min dynamic scans, animal model: Normal BABL/c mice at 6-8 wks."}, "GLP-1R": {"biological_target": "GLP-1R (Homo sapiens, UniProt P43220)", "sequence (P43220 24-463)": "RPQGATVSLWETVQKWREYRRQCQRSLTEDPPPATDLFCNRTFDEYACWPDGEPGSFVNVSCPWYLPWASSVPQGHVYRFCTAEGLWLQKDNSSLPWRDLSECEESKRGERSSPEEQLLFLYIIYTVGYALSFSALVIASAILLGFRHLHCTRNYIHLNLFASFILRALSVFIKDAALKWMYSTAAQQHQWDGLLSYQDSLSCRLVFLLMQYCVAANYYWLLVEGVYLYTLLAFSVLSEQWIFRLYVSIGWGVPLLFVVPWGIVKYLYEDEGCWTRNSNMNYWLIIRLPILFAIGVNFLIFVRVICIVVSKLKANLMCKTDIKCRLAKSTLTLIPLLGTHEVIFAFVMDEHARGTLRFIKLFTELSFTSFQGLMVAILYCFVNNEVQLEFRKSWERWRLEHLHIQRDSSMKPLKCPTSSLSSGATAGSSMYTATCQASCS", "test": "cAMP accumulation in HEK293 cells stably expressing GLP-1R-GFP", "format": "cell-based", "parameters": "GFP; expressed in transfected cells; host or cells: HEK293", "text": "In all cases, reactions were stopped with 1.2 M trichloroacetic acid and cAMP was isolated by the two column chromatographic method."}}, "data": [{"smiles": "CC[C@H](C)[C@H](NC(=O)[C@H](Cc1ccccc1)NC(=O)[C@H](CCC(=O)O)NC(=O)[C@H](CCCCN)NC(=O)[C@H](C)NC(=O)[C@H](C)NC(=O)[C@H](CCC(N)=O)NC(=O)CNC(=O)[C@H](CCC(=O)O)NC(=O)[C@H](CC(C)C)NC(=O)[C@H](Cc1ccc(O)cc1)NC(=O)[C@H](CO)NC(=O)[C@H](CO)NC(=O)[C@@H](NC(=O)[C@H](CC(=O)O)NC(=O)[C@H](CO)NC(=O)[C@@H](NC(=O)[C@H](Cc1ccccc1)NC(=O)[C@@H](NC(=O)CNC(=O)[C@H](CCC(=O)O)NC(=O)[C@H](C)NC(=O)[C@@H](N)Cc1c[nH]cn1)[C@@H](C)O)[C@@H](C)O)C(C)C)C(=O)N[C@@H](C)C(=O)N[C@@H](Cc1c[nH]c2ccccc12)C(=O)N[C@@H](CC(C)C)C(=O)N[C@H](C(=O)N[C@@H](CCCCN)C(=O)NCC(=O)N[C@@H](CCCNC(=N)N)C(=O)NCCCCCC(=O)N[C@@H](CSC1CC(=O)N(CCNC(=O)CN2CCN(CC(=O)O)CCN(CC(=O)O)CCN(CC(=O)O)CC2)C1=O)C(N)=O)C(C)C", "note": "(stereo partly drawn) (64Cu complex, metal not drawn) [L-GLP-1, [Ala^8]GLP-1-Ahx-Cys]", "values": [{"measurement": "tissue uptake at 20 min", "setting": "in vivo; % ID/g blood", "result": "0.78 ± 0.14", "unit": "%ID/g"}, {"measurement": "tissue uptake at 1 h", "setting": "in vivo; % ID/g blood", "result": "0.47 ± 0.03", "unit": "%ID/g"}, {"measurement": "tissue uptake at 4 h", "setting": "in vivo; % ID/g blood", "result": "0.62 ± 0.15", "unit": "%ID/g"}, {"measurement": "tissue uptake at 24 h", "setting": "in vivo; % ID/g blood", "result": "0.07 ± 0.07", "unit": "%ID/g"}, {"measurement": "tissue uptake at 20 min", "setting": "in vivo; % ID/g fat", "result": "0.35 ± 0.1", "unit": "%ID/g"}, {"measurement": "tissue uptake at 4 h", "setting": "in vivo; % ID/g fat", "result": "0.72 ± 0.57", "unit": "%ID/g"}, {"measurement": "tissue uptake at 24 h", "setting": "in vivo; % ID/g fat", "result": "0.01 ± 0.01", "unit": "%ID/g"}, {"measurement": "tissue uptake at 20 min", "setting": "in vivo; % ID/g heart", "result": "0.39 ± 0.23", "unit": "%ID/g"}, {"measurement": "tissue uptake at 1 h", "setting": "in vivo; % ID/g heart", "result": "0.11 ± 0.1", "unit": "%ID/g"}, {"measurement": "tissue uptake at 4 h", "setting": "in vivo; % ID/g heart", "result": "0.2 ± 0.06", "unit": "%ID/g"}, {"measurement": "tissue uptake at 20 min", "setting": "in vivo; % ID/g kidney", "result": "30.6 ± 6.76", "unit": "%ID/g"}, {"measurement": "tissue uptake at 1 h", "setting": "in vivo; % ID/g kidney", "result": "34.3 ± 5.42", "unit": "%ID/g"}, {"measurement": "tissue uptake at 4 h", "setting": "in vivo; % ID/g kidney", "result": "41.4 ± 4.98", "unit": "%ID/g"}, {"measurement": "tissue uptake at 24 h", "setting": "in vivo; % ID/g kidney", "result": "45.8 ± 2.94", "unit": "%ID/g"}, {"measurement": "tissue uptake at 20 min", "setting": "in vivo; % ID/g large int", "result": "0.19 ± 0.1", "unit": "%ID/g"}, {"measurement": "tissue uptake at 1 h", "setting": "in vivo; % ID/g large int", "result": "0.04 ± 0.04", "unit": "%ID/g"}, {"measurement": "tissue uptake at 4 h", "setting": "in vivo; % ID/g large int", "result": "0.67 ± 0.47", "unit": "%ID/g"}, {"measurement": "tissue uptake at 24 h", "setting": "in vivo; % ID/g large int", "result": "4.83 ± 1.16", "unit": "%ID/g"}, {"measurement": "tissue uptake at 20 min", "setting": "in vivo; % ID/g liver", "result": "1.13 ± 0.42", "unit": "%ID/g"}, {"measurement": "tissue uptake at 1 h", "setting": "in vivo; % ID/g liver", "result": "2.03 ± 0.25", "unit": "%ID/g"}, {"measurement": "tissue uptake at 4 h", "setting": "in vivo; % ID/g liver", "result": "3.34 ± 0.58", "unit": "%ID/g"}, {"measurement": "tissue uptake at 24 h", "setting": "in vivo; % ID/g liver", "result": "1.43 ± 0.21", "unit": "%ID/g"}, {"measurement": "tissue uptake at 20 min", "setting": "in vivo; % ID/g lung", "result": "1.92 ± 0.08", "unit": "%ID/g"}, {"measurement": "tissue uptake at 1 h", "setting": "in vivo; % ID/g lung", "result": "0.9 ± 0.14", "unit": "%ID/g"}, {"measurement": "tissue uptake at 4 h", "setting": "in vivo; % ID/g lung", "result": "1.02 ± 0.13", "unit": "%ID/g"}, {"measurement": "tissue uptake at 24 h", "setting": "in vivo; % ID/g lung", "result": "0.83 ± 0.18", "unit": "%ID/g"}, {"measurement": "tissue uptake at 20 min", "setting": "in vivo; % ID/g muscle", "result": "0.12 ± 0.01", "unit": "%ID/g"}, {"measurement": "tissue uptake at 24 h", "setting": "in vivo; % ID/g muscle", "result": "0.08 ± 0.1", "unit": "%ID/g"}, {"measurement": "tissue uptake at 20 min", "setting": "in vivo; % ID/g pancreas", "result": "0.34 ± 0.14", "unit": "%ID/g"}, {"measurement": "tissue uptake at 1 h", "setting": "in vivo; % ID/g pancreas", "result": "0.11 ± 0.11", "unit": "%ID/g"}, {"measurement": "tissue uptake at 4 h", "setting": "in vivo; % ID/g pancreas", "result": "0.4 ± 0.56", "unit": "%ID/g"}, {"measurement": "tissue uptake at 24 h", "setting": "in vivo; % ID/g pancreas", "result": "0.03 ± 0.06", "unit": "%ID/g"}, {"measurement": "tissue uptake at 20 min", "setting": "in vivo; % ID/g small int", "result": "0.38 ± 0.21", "unit": "%ID/g"}, {"measurement": "tissue uptake at 1 h", "setting": "in vivo; % ID/g small int", "result": "0.45 ± 0.24", "unit": "%ID/g"}, {"measurement": "tissue uptake at 4 h", "setting": "in vivo; % ID/g small int", "result": "0.93 ± 0.43", "unit": "%ID/g"}, {"measurement": "tissue uptake at 24 h", "setting": "in vivo; % ID/g small int", "result": "0.42 ± 0.16", "unit": "%ID/g"}, {"measurement": "tissue uptake at 20 min", "setting": "in vivo; % ID/g spleen", "result": "0.28 ± 7", "unit": "%ID/g"}, {"measurement": "tissue uptake at 1 h", "setting": "in vivo; % ID/g spleen", "result": "0.18 ± 0.08", "unit": "%ID/g"}, {"measurement": "tissue uptake at 4 h", "setting": "in vivo; % ID/g spleen", "result": "0.4 ± 0.35", "unit": "%ID/g"}, {"measurement": "tissue uptake at 24 h", "setting": "in vivo; % ID/g spleen", "result": "0.38 ± 0.47", "unit": "%ID/g"}, {"measurement": "tissue uptake at 20 min", "setting": "in vivo; % ID/g stomach", "result": "0.64 ± 0.28", "unit": "%ID/g"}, {"measurement": "tissue uptake at 1 h", "setting": "in vivo; % ID/g stomach", "result": "0.46 ± 0.28", "unit": "%ID/g"}, {"measurement": "tissue uptake at 4 h", "setting": "in vivo; % ID/g stomach", "result": "0.5 ± 0.15", "unit": "%ID/g"}, {"measurement": "tissue uptake at 24 h", "setting": "in vivo; % ID/g stomach", "result": "0.11 ± 0.04", "unit": "%ID/g"}]}, {"smiles": "CC[C@H](C)[C@H](NC(=O)[C@H](Cc1ccccc1)NC(=O)[C@H](CCC(=O)O)NC(=O)[C@H](CCCCN)NC(=O)[C@H](C)NC(=O)[C@H](C)NC(=O)[C@H](CCC(N)=O)NC(=O)[C@@H]1CCCCNC(=O)CC[C@H](NC(=O)[C@H](CO)NC(=O)[C@@H](NC(=O)[C@H](CC(=O)O)NC(=O)[C@H](CO)NC(=O)[C@@H](NC(=O)[C@H](Cc2ccccc2)NC(=O)[C@@H](NC(=O)CNC(=O)[C@H](CCC(=O)O)NC(=O)[C@@H](C)NC(=O)[C@@H](N)Cc2c[nH]cn2)[C@@H](C)O)[C@@H](C)O)C(C)C)C(=O)N[C@@H](Cc2ccc(O)cc2)C(=O)N[C@@H](CC(C)C)C(=O)N[C@@H](CCC(=O)O)C(=O)N1)C(=O)N[C@H]1CCC(=O)NCCCC[C@@H](C(=O)NCC(=O)N[C@@H](CCCNC(=N)N)C(=O)NCCCCCC(=O)N[C@@H](CSC2CC(=O)N(CCNC(=O)CN3CCN(CC(=O)O)CCN(CC(=O)O)CCN(CC(=O)O)CC3)C2=O)C(N)=O)NC(=O)[C@H](C(C)C)NC(=O)[C@H](CC(C)C)NC(=O)[C@H](Cc2c[nH]c3ccccc23)NC1=O", "note": "(stereo partly drawn) [EM2198, HXEGTFTSDVSEYLEKQAAKEFIEWLVKGR, wherein X is D-Ala]", "values": [{"measurement": "pancreatic retention", "setting": "GLP-1R in pancreas", "result": "> 30", "unit": "min"}, {"measurement": "EC50", "setting": "GLP-1R", "result": "~1", "unit": "nM"}]}]}
